Source: PMC9557730

B1: N-terminal 3×-FLAG-tagged p52 (WT) [human] / p44 [human (endogenous in HEK293T)] (parent)
chain 1: MESTPSRGLNRVHLQCRNLQEFLGGLSPGVLDRLYGHPATCLAVFRELPSLAKNWVMRMLFLEQPLPQAAVALWVKKEFSKAQEESTGLLSGLRIWHTQLLPGGLQGLILNPIFRQNLRIALLGGGKAWSDDTSQLGPDKHARDVPSLDKYAEERWEVVLHFMVGSPSAAVSQDLAQLLSQAGLMKSTEPGEPPCITSAGFQFLLLDTPAQLWYFMLQYLQTAQSRGMDLVEILSFLFQLSFSTLGKDYSVEGMSDSLLNFLQHLREFGLVFQRKRKSRRYYPTRLAINLSSGVSGAGGTVHQPGFIVVETNYRLYAYTESELQIALIALFSEMLYRFPNMVVAQVTRESVQQAIASGITAQQIIHFLRTRAHPVMLKQTPVLPPTITDQIRLWELERDRLRFTEGVLYNQFLSQVDFELLLAHARELGVLVFENSAKRLMVVTPAGHSDVKRFWKRQKHSS
chain 2: MDEEPERTKRWEGGYERTWEILKEDESGSLKATIEDILFKAKRKRVFEHHGQVRLGMMRHLYVVVDGSRTMEDQDLKPNRLTCTLKLLEYFVEEYFDQNPISQIGIIVTKSKRAEKLTELSGNPRKHITSLKKAVDMTCHGEPSLYNSLSIAMQTLKHMPGHTSREVLIIFSSLTTCDPSNIYDLIKTLKAAKIRVSVIGLSAEVRVCTVLARETGGTYHVILDESHYKELLTHHVSPPPASSSSECSLIRMGFPQHTIASLSDQDAKPSFSMAHLDGNTEPGLTLGGYFCPQCRAKYCELPVECKICGLTLVSAPHLARSYHHLFPLDAFQEIPLEEYNGERFCYGCQGELKDQHVYVCAVCQNVFCVDCDVFVHDSLHCCPGCIHKIPAPSGV

Variants of: B1
Test: FLAG-IP LC–MS (iBAQ)
Conditions: with p44 [human (endogenous in HEK293T)]; HEK293T nuclear extracts; n = 3, biological replicates; read off a plot

| response (Normalized Log2 iBAQ) | Variant |
| --- | --- |
| 0.64 | chain 1 E310F |
| 0.71 | chain 1 R337A F338A |
| 0.66 | chain 1 E310A R314A |
| 0.66 | chain 1 Y316A Y318A |
